# Results from the supplement of paper PMC9170038.
# System: MS2 coat protein
# Experiment: apparent KD of MS2 coat protein; higher = weaker reporter binding
# Details: Eterna round: R107
# How it was run: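 In 100 mM Tris-HCl pH 7.5 with 80 mM KCl and 4 mM MgCl2, and without or with constant ligand, SNAP-549-labelled MS2 coat protein was titrated in twofold steps from 0.7 or 1.5 nM to 3 µM. Per-step times went from 0.8–1.5 h down to 10–20 min. The RNA switches were transcribed on-chip from Illumina sequencing clusters, and apparent KD is the per-design median of normalised cluster binding-curve fits.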
# [1] = input ligand: theophylline 20 uM
# [2] = input ligand: theophylline 2 mM
# [3] = input ligand: tryptophan 2.4 mM
Sequence,apparent KD of MS2 coat protein (input ligand: arginine 13.2 mM),apparent KD of MS2 coat protein (input ligand: none),apparent KD of MS2 coat protein [1],apparent KD of MS2 coat protein [2],apparent KD of MS2 coat protein [3]
GCAACAUGAGGAUCACCCAUGUUUACUGAAGGAGCGAGACAGAACUCAGGUAGGUCGCAGACGGCGGAAUCGCCGACGACAUGGG [Exclusion Arginine A GF24],19.6 nM,22.4 nM,33.5 nM,27.9 nM,21.6 nM
GCAAUACAUGAGGAUCACCCAUGUGCAGAUACCAGAGGUGCGUGCCUCCCUUGGCAGCUGCGACGCUCUGGAAGCUUGUGUGUCU [Exclusion Theophylline A GF27],18.4 nM,,26.2 nM,,21.2 nM
GCACAAGAUGGAAGGAGCGCUGGUAUAAGUCACAUGAGGAUCACCCAUGUGCUCCUUGCCGAGCAGGUAGGUCGCCAUCUUGUGC [SSAB NP+V+V2 #5],22.3 nM,42 nM,71 nM,66.9 nM,68.1 nM
GCAUCAUGAACGGCCGCCACUAAGGAAUGAGCGGCUCUUGCGAUACAUGAGGAUCACCCAUGUCUUAGGACCGGGUUCAUUGUCA [theeternabot_sameState_MS2_Trp_B_49],69 nM,,343 nM,322 nM,
GCAUCCUAGUCGGCCGCCACUGCAACAUGAGGAUCACCCAUGUACUGCACAUGGGAAUGCAGUAGCAGGACCGGGACUAGGAUGC [(T1)-(M1)-(M2)-(T)''-(M)'-(T)'-(T2)_Design2_2/18/17],109 nM,294 nM,268 nM,249 nM,48.4 nM
GCAUCCUAGUCGGCCGCCACUGCAUGUUGGCAGUGCUGCAACAUACAUGAGGAUCACCCAUGUUGCAGGACCGGGACUAGGAUGC [(Trp1)-(MT2)''-(T1)'-(MT2)'-(Ms2)-(Trp2)_Design1],23.8 nM,24.3 nM,28.7 nM,25.2 nM,22.8 nM
GCAUCCUAGUCGGCCGCCACUGGGUGUACCCAGUGCUGGUACAAACAUGAGGAUCACCCAUGUACCAGGACCGGGACUAGGAUGC [(Trp1)-(MT2)''-(T1)'-(MT2)'-(Ms2)-(Trp2)_Design4],10.8 nM,15.6 nM,21.2 nM,16.7 nM,13.8 nM
GCAUCCUAGUCGGCCGCCACUGGUACGAAUACCUUCACCCGUGUGCACAUGAGGAUCACCCAUGUCAGGACCGGGACUAGGAUGC [SSTryp B #23],9.58 nM,9.22 nM,13.8 nM,9.91 nM,9.61 nM
GCAUGUUGGUGGUUUCUGCGAAGGCGGAAUCGAGGACCGGUACGGCCGCCACUCGGCGACAUGAGGAUCACCCAUGUGGUUAGGA [Exclusion - Tryptophan A (Freestyle 9)],42.1 nM,462 nM,220 nM,461 nM,208 nM
GCCGCUGCCGCGGUGUGUGUGGGUGGGUGACGAGGACCGGUACGGCCGCCACUCGCGAUCGCACAUGAGGAUCACCCAUGUGUAA [Exclusion Tryp A GF20],13.3 nM,,20.7 nM,19.6 nM,
GCCUAGCAGCGAAGGAGCGAGGUAAAUAAAUAAAUAAAUAACAAGAGGAUCACCCUUGUUCCUCAGGUAGGUCGCGCUGCUAGGC [SSAB Alternative Aptamer #1 NP+V+V2],16 nM,17.5 nM,22.7 nM,18.9 nM,17.9 nM
GCCUAGCAUCGAAGGAGCGGGCAUUACGCGCGAAAGCGCGAUACUUGAGGAACACCCAAGUCCCAGGUAGGUCGCGAUGCUAGGC [SSAB Alternative Aptamer #3 NP+V+V2],31.4 nM,70.9 nM,127 nM,94.9 nM,83.5 nM
GCGACACUCACGGCCGCCACUGAUUAGCCCAGUAUGGAGCCCACACAUGAGGAUCACCCAUGUCACAGGACCGGGUGGGUCUAUU [theeternabot_sameState_MS2_Trp_B_23],22.8 nM,,42.1 nM,25.5 nM,
GCGACCCUGAGAUCCUGCGUAACGUGAACACGAGGACCGGUACGGCCGCCACUCGAGAGAACAUGAGGAUCACCCAUGUCUGAGC [e-trypA-0(N)],16.2 nM,,28.4 nM,26.4 nM,
GCUAGGUCUACGGCCGCCACUAGACGUGGGUAAGACAUGAGGAUCACCCAUGUACUACGGGCGCUUAGGACCGGGUAGACCUAGC [SSTB NP+V+V2 #17 +-Same Structure],116 nM,,187 nM,285 nM,
GCUGCCAUACGAAGGAGCGCUGUUGCAAUGAGGCGAACAUGAGGAUCACCCAUGUGGCAGCAGCAGGUAGGUCGCGUAUGGCAGC [EAB #12],33.4 nM,42.5 nM,53.6 nM,52.7 nM,44.2 nM
GCUGUAAGUGCAGAUACCAGCAGGUGAUAUUUCAUAUGACAUGAGGAUCACCCAUGUAACUGCCCUUGGCAGCUGCACUUACAGC [SSTHB #9],172 nM,,193 nM,,523 nM
GCUGUACCAUGAAGGAGCGUCACGGAGUGCGAAUACACAUGAGGAUCACCCAUGUUUUUAUGGCAGGUAGGUCGCAUGGUACAGC [#02 Same State - Arginine B],22.8 nM,22.3 nM,33.3 nM,28.4 nM,22.9 nM
GGAACAUGAGGAUCACCCAUGUAAUCACGACGAGGACCGGUACGGCCGCCACUCGUAUUCACGCAAGGUAGAGGAAUACGUAGGC [theeternabot_exclusion_MS2_Trp_A_2],15.4 nM,,17.6 nM,14.3 nM,
GGACCAGGGAGCGAUACCAGCUUGAGUGUGCUGGCCAGGCACAUGAGGAUCACCCAUGUAGGCCCUUGGCAGCGCUCCCUGGUCC [#1 Exclusion - Theophylline B Attempt #28 (HarryS)],9.06 nM,9.45 nM,16.5 nM,12.3 nM,14.1 nM
GGAGCUACGUCGGCCGCCACUAGCGGGUAUUGCGUGUACAUGAGGAUCACCCAUGUAAUAUGGCCUAGGACCGGGACGUAGCUCC [Bison],13.3 nM,16.7 nM,22.4 nM,16.9 nM,16.5 nM
GGAUAGGACACGGCCGCCACUAGCUAGGAUACUAGCAACAUUUCCUCACUUGAGGAUCACCCAGGUAGGACCGGGUGUCCUAUCG,143 nM,580 nM,577 nM,1430 nM,620 nM
GGAUAGGACACGGCCGCCACUAGCUAGGAUACUAGCAACAUUUCCUCAGAUGAGGAUCACCCAUCUAGGACCGGGUGUCCUAUCG,25.7 nM,26 nM,36.5 nM,33.6 nM,84.4 nM
GGAUAGGACACGGCCGCCACUGCGGCUAGAUACUAGCACAUUUCCUCACAUGAGGAUCACCCAUGUAGGACCGGGUGUCCUAUCG,57.6 nM,,122 nM,89 nM,
GGAUAGGACAGAAGGAGCGUGAGAUGCAAAGCAUCAUUCCUCACAUGAGGAUCACCCAUGUCACAGGUAGGUCGCUGUCCUAUCG [ArgBX 4],78.3 nM,95.1 nM,119 nM,110 nM,112 nM
GGCACACAUGAGGAUCACCCAUGUGGCGAUACCAGUUGAUGGUAAAACCCUUGGCAGCGCCAGUCACAUGCAGAUAGUUACUGAA [theeternabot_sameState_MS2_Theo_A_32],14.2 nM,,19.4 nM,,15.8 nM
GGCACAUAGUCGGCCGCCACUAGUGGGAAAUGGGAGAACAUGAGGAUCACCCAUGUAGCGUAGCCUAGGACCGGGACUAUGUGCC [Elephant],85.3 nM,,172 nM,231 nM,
GGCACUCUGUAAGAUACCAGACGUCGGUGCUUACAUGAGGAUCACCCAUGUUGCUUUUUAGUCCCUUGGCAGCUUCGGAUAACCA [Oniste],88.6 nM,,557 nM,,230 nM
GGCCGAUGGUGCGAUACCAGCUUGAGUGUACUGGCCAGGUACAUGAGGAUCACCCAUGUAAGCCCUUGGCAGCGCGUCAAAGGCC [#1 Exclusion - Theophylline B Attempt #20 (HarryS)],7.09 nM,11.3 nM,17.6 nM,24.2 nM,10.5 nM
